Here are results for 2 molecules from patent US7842469B2, “Bioluminescence resonance energy transfer (BRET) systems and methods of use thereof” (Stanford University, priority 2005, dated 2010).

A short description of data set [1]: Bioluminescence emission spectra. It is filed as physicochemical. Particulars: emission spectrum with native coelenterazine. An outline of the steps: (§1)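 Luciferase diluted into mouse or rat serum at 37° C; aliquots withdrawn over time for activity, half-life from mono-exponential decay fit. Emission spectra recorded at ambient temperature with a grating spectrometer and cooled CCD detector.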

In another data set the test system is 293T cells. Nature of the data set: Mammalian expression, transient transfection, light output in 293T cells. It is filed as cell-based, human. To be noted: pcDNA 3.1 CMV plasmid, 24 hours post transfection, coelenterazine. An excerpt: (§2) Mammalian Expression: In order to construct mammalian expression vectors, bacterial expression vectors containing the desired mutations were used as templates for PCR, with primers designed such that the N-terminal pelB sequence would be replaced by a methionine codon and a C-terminal stop codon would replace the Myc epitope and 6×His tag. The primers also contained appropriate NheI and HindIII restriction sites to allow insertion of the product into the pcDNA 3.1 plasmid (Invitrogen). The resultant plasmids were transiently transfected using SuperFect (Qiagen) into 293T or Chinese Hamster Ovarian (CHO, ATCC# CCL-61) cells growing in 24 well plates following the manufacturer's protocol. Twenty-four hours post transfection, 0.5 μg/well of coelenterazine was added, and the plates were imaged in an IVIS 50 imaging system (Xenogen, Alameda, Calif.).

The nature of data set [2]: Luciferase activity of purified RLuc mutants (light output integrated over 10 s, luminometer). The data set is classed as biochemical. An outline of the steps: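 Purified RLuc mutant sample, diluted in EB with 1% HSA, added to room-temperature 100 mM sodium phosphate (pH 7), then 1 μl of 0.5 μg/μl coelenterazine or analog mixed in manually. Light read for 10 s starting ~4 s after luciferin addition. Luminometer calibrated to photons/s against luminol standard in DMSO.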

The nature of data set [3]: Kinetics (Michaelis-Menten fit to initial reaction velocity). The data set is classed as biochemical. Particulars: for Km / kcat: coelenterazine 0.038 to 24 μM, formal standard error of fit. How it is done: Kinetics: Kinetics were assessed by injecting 100 μl of 100 mM sodium phosphate buffer (pH 7) containing coelenterazine onto 1 μl of protein (diluted appropriately in EB containing 1% HSA), and recording the light output for 20 min. The final coelenterazine concentrations tested were 118, 24, 4.7, 0.94, 0.19, and 0.038 μM. The final Luciferase concentrations were in the range of 1-7 pM. Coelenterazine absorbance was corrected for, although this was only significant for the highest concentration (10% attenuation). The values were converted from photons/s to molecules/s using the data from the quantum yield measurements, converted from flux units to mass units via integration, and processed using the kinetic curve fitting program Dynafit.

Data set [4] is described as follows: Quantum yield measurements. It is filed as biochemical. To be noted: for Quantum Yield (%) bc: benzyl-coelenterazine; for Quantum Yield (%) bdc: bisdeoxycoelenterazine; for Quantum Yield (%) cp: coelenterazine-cp; for Quantum Yield (%) n: coelenterazine-n; for Quantum Yield (%) native: native coelenterazine. How it is done:
For quantum yield measurements, separate 1 μl drops of protein (about 2 pm) and substrate (0.2 pm) were placed in a tube, 100 μl of 100 mM sodium phosphate buffer (pH 7) was injected by the luminometer to mix, and the total light output was integrated (generally 5-10 min). For coelenterazine-n, the protein amount was increased 10 fold and the acquisition time lengthened to insure the reaction approached completion.

For data set [5], the system named is 293T cells implanted in nude mice. Briefly: In vivo animal imaging of BRET^2 expression with cooled CCD camera. Also noted: species or system mouse. Particulars: 3×10^6 transfected 293T cells s.c. in nude mice, DBC i.v. How it is done:
In Vivo Animal Imaging of BRET^2 Expression by Using a Cooled CCD Camera: 293T cells transiently transfected with either phRluc or pBRET^2 were harvested 24 hours post-transfection and resuspended in PBS. An aliquot of 3×10^6 cells each was injected s.c. in a set of 3 anesthetized (ketamine:xylazine 4:1) nude mice. One hour after cell injection, 20 μg/mouse of DBC diluted in D-PBS (100 μl total volume) was injected via tail vein (i.v.) and imaged immediately using the CCD camera. For the deep tissue signal detection experiment, 3×10^6 cells each were injected intravenously in another set of anesthetized nude mice, and a scan was performed half an hour later after 100 μg/mouse of DBC injection. For protein-protein interaction experiments, 293T cells were transiently transfected with either pBRET^2, pFKBP12-hRluc alone or co-transfected with pFKBP12-hRluc and pGFP^2-FRB in 1:1 DNA ratio. The cells were harvested 24 hours post-transfection and re-suspended in PBS after counting the cell number. An aliquot of 5×10^6 cells each was injected s.c. in a set of 6 nude mice. Three of these mice were kept aside, while the other 3 mice received single dose of 5 mg/kg rapamycin intra-peritonially (i.p.). After 7 hours, mice were injected intravenously with 25 μg of DBC/mouse and imaged using specified filters. […]
A general note: BRET reads energy transfer from a luciferase to a nearby fluorophore.

The test system of the next data set is CHO cells. Briefly: Mammalian expression, transient transfection, light output in CHO cells. Particulars: pcDNA 3.1 CMV plasmid, 24 hours post transfection, coelenterazine. The data set is classed as cell-based, Chinese Hamster.
Source text: as §2

For data set [6] the following is noted: RLuc purified directly from Renilla reniformis; cited from earlier work.
For data set [7] the following is noted: recombinant RLuc, hamster blood at 37° C.; cited from earlier work.
The nature of data set [8]: Serum stability in mouse serum at 37° C. The data set is classed as in vitro ADME. Particulars: mouse serum, 37° C., mono-exponential fit. An outline of the steps: as §1
Data set [9] can be described thus: Serum stability in rat serum at 37° C. The data set is classed as in vitro ADME. Particulars: mono-exponential fit. The method in brief:
as §1

For data set [10] the following is noted: cited from earlier work.
Data set [11] has as its system HT1080 fibro-sarcoma cells. Briefly: BRET vectors with RLuc mutants fused to GFP^2, CCD camera spectral imaging in cells. The data set is classed as cell-based. Particulars: Coelenterazine400a; normalized with CMV-FLuc; P<0.01. How it is done: Methods: Three different mutations of RLuc, a single mutation C124A, a double mutation C124A/M185V, and a combination of eight mutations called RLuc8, were fused with GFP^2 and tested in HT1080 fibro-sarcoma cells by using CCD camera based spectral imaging. The new vectors were also tested in a small animal tumor model with implanted cells at various tissue depths.
FIG. 7 illustrates a comparative chart showing normalized donor (RLUC) and acceptor (GFP2) signal as measured from 293T cells transiently transfected with the marked plasmid vectors. BRET2 represents GFP2-Rluc, BRET-C represents GFP2-Rluc C124A, BRET-M represents Rluc C124A/M185V, BRET-Rl8 represents GFP2-Rluc8, RL represents Rluc, RL-C represents RLuc C124A, RL-M represents RLuc C124A/M185V, and Rl8 represents Rluc8. CCD camera scans were performed by adding Coelenterazine400a to the well plates. The cells were co-transfected with CMV-FLuc plasmid and scaned at the same time using D-Luciferin substrate for normalization purposes.
FIGS. 8A and 8B illustrate comparative assessments on signal quantification from HT1080 cells stably over-expressing GFP2-Rluc8 (8A) and GFP2-Rluc (8B) plasmid vectors. […] The line represents the calculated BRET ratios at each time point of measurements. […]

Changes are numbered by the printed parent chain. Names and notes keep the numbering of the source. Read-outs that look alike come from different tables or passages of the source.

B1: Native RLuc: Luciferase from Renilla reniformis, native enzyme (SEQ ID NO: 1) (protein)
chain: MASKVYDPEQRKRMITGPQWWARCKQMNVLDSFINYYDSEKHAENAVIFLHGNAASSYLWRHVVPHIEPVARCIIPDLIGMGKSGKSGNGSYRLLDHYKYLTAWFELLNLPKKIIFVGHDWGACLAFHYSYEHQDKIKAIVHAESVVDVIESWDEWPDIEEDIALIKSEEGEKMVLENNFFVETMLPSKIMRKLEPEEFAAYLEPFKEKGEVRRPTLSWPREIPLVKGGKPDVVQIVRNYNAYLRASDDLPKMFIESDPGFFSNAIVEGAKKFPNTEFVKVKGLHFSQEDAPDEMGKYIKSFVERVLKNEQ
modifications: Chemically synthesized Renilla Luciferase
B1: in data set [1], the “Wavelength (nm) mean” value came out at 497 nm and the “Wavelength (nm) peak” value is 482 nm. For the same molecule, the “Light output after transient transfection, 293T” value in the data set on 293T cells is 22.5 ± 0.7 photons × 10^6/s/cm^2/steradian. Moreover, in data set [2] (benzyl-coelenterazine, 10 s integration, absolute units), the “Activity (photons/s/mole enzyme) bc” value is 5.4 × 10^22 photons/s/mole enzyme. The “Activity (photons/s/mole enzyme) bdc” value in data set [2] (bisdeoxycoelenterazine, 10 s integration, absolute units (overestimation per footnote)) was 5.8 × 10^19 photons/s/mole enzyme. The “Activity (photons/s/mole enzyme) cp” value in [2] (coelenterazine-cp, 10 s integration, absolute units) is 1.7 × 10^22 photons/s/mole enzyme. Moreover, in data set [2] (coelenterazine-n, 10 s integration, absolute units), the “Activity (photons/s/mole enzyme) n” value is listed as 8.3 × 10^21 photons/s/mole enzyme. Further, the “Activity (photons/s/mole enzyme) native” value in data set [2] (native coelenterazine, 10 s integration, absolute units) was “(3.2 ± 0.3) × 10^22 photons/s/mole enzyme”. In addition, in [3], the Km was determined as 2.9 ± 1 µM and the kcat is 3.9 ± 0.4 s⁻¹. In data set [3] (recombinant RLuc, 24 μM coelenterazine), the Peak light flux is reported as 1.2±0.2×10^23 photons/s/mole enzyme. Moreover, in data set [4], the “Quantum Yield (%) bc” value was found to be 3.2 ± 0.04%, the “Quantum Yield (%) bdc” value is on record as “(6.1 ± 0.9) × 10^−3%”, the “Quantum Yield (%) cp” value is 4.7 ± 0.03% and the “Quantum Yield (%) n” value was determined as 6.1 ± 0.2%. For the same molecule, the “Quantum Yield (%) native” value in data set [4] came to 5.3 ± 0.1%. For the same molecule, in data set [5], the “average radiance on GFP^2 filter, subcutaneous implants” value is 0.342±0.031×10^3 photons/sec/cm^2/steradian. The “Light output after transient transfection, CHO” value in the data set on CHO cells is 11.7 ± 1.2 photons × 10^6/s/cm^2/steradian. Further, in data set [6], the “previously published emission peak” value is recorded as 482 nm. In addition, in data set [7], the “half-life in hamster blood” value is 36 min. Moreover, the “Serum τ1/2 (h) mouse” value in data set [8] turned out to be 0.9 h. Also, the “Serum τ1/2 (h) rat” value in [9] is listed as 0.4 h. Also, the “reported peak light flux” value in [10] (RLuc purified directly from Renilla reniformis) is 6.5×10^22 photons/s/mole enzyme. Moreover, in data set [10] (in the presence of benzyl-coelenterazine, read-out: previously published Km), the Km was 2 µM. Further, in data set [10] (recombinant RLuc), the “reported peak light flux” value was 9×10^22 photons/s/mole enzyme.

B2: C124A: RLuc with the C124A mutation (C152A in Liu and Escher), with Myc epitope (protein)
chain: B1 chain with C124A
modifications: Myc epitope tag; Chemically synthesized Renilla Luciferase
B2: in data set [1], the “Wavelength (nm) mean” value worked out at 498 nm and the “Wavelength (nm) peak” value worked out at 482 nm. In addition, the “Light output after transient transfection, 293T” value in the data set on 293T cells was 62.8 ± 12.9 photons × 10^6/s/cm^2/steradian. The “increase of normalized luciferase signal in comparison to cells expressing GFP^2-RLUC” value in [11] was “No significant improvements”. Further, the “Activity (relative to RLuc) bc” value in data set [2] (benzyl-coelenterazine, relative to native enzyme) amounted to 0.75. For the same molecule, in data set [2] (bisdeoxycoelenterazine, relative to native enzyme), the “Activity (relative to RLuc) bdc” value is listed as 0.68. The “Activity (relative to RLuc) cp” value in data set [2] (coelenterazine-cp, relative to native enzyme) was found to be 0.79. For the same molecule, in data set [2] (coelenterazine-n, relative to native enzyme), the “Activity (relative to RLuc) n” value is on record as 0.63. Also, the “Activity (relative to RLuc) native” value in data set [2] (native coelenterazine, relative to native enzyme) came out at 1.2 ± 0.1. Also, in data set [3], the Km stood at 2.7 ± 0.8 µM and the kcat came to 4.7 ± 0.4 s⁻¹. In addition, in data set [4], the “Quantum Yield (%) bc” value is recorded as 3.6 ± 0.1%, the “Quantum Yield (%) bdc” value is recorded as “(7.7 ± 0.5) × 10^−3%”, the “Quantum Yield (%) cp” value came out at 5.2 ± 0.1% and the “Quantum Yield (%) n” value was 6.4 ± 0.01%. Besides, in data set [4], the “Quantum Yield (%) native” value worked out at 5.4 ± 0.3%. For the same molecule, the “Light output after transient transfection, CHO” value in the data set on CHO cells was 64.0 ± 4.9 photons × 10^6/s/cm^2/steradian. Moreover, the “Serum τ1/2 (h) mouse” value in [8] amounted to 7.1 ± 0.4 h. The “Serum τ1/2 (h) rat” value in data set [9] is listed as 6.6 ± 0.5 h.

The term Km denotes the concentration of substrate that gives half-maximal velocity. What is called kcat is the number of substrate molecules converted per active site and unit of time at saturation.
